Target: T1, CD6 (basal, native) on non-transduced T cells (human, UniProt P30203 18-668)
T1 construct: whole, on cells; also called basal CD6 expression on normal T cells
T1 sequence (looked up): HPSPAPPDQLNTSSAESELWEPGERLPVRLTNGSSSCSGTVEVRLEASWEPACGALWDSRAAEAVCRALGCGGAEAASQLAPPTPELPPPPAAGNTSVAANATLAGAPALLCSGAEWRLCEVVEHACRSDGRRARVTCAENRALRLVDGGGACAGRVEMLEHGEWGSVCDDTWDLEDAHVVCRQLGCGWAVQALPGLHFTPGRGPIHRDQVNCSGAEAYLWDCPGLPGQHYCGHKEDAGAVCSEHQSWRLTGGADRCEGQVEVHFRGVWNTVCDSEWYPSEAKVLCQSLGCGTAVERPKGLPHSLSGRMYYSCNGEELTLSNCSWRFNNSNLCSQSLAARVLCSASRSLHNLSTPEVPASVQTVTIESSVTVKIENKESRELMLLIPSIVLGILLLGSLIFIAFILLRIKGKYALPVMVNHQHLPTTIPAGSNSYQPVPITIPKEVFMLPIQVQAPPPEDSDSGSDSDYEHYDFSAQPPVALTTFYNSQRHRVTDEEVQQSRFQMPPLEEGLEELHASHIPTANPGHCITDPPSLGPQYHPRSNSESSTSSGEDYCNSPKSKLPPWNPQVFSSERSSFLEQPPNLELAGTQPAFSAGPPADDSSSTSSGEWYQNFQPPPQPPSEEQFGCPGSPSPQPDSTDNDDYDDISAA
Test: flow cytometry; non-transduced T cells stained with ALCAM-Fc and anti-human IgG1 Fc FITC
Description: A) FACS analysis was used to confirm ALCAM specific binding to MBE CD6 D3 constructs on the surface of primary T cells. Cells were incubated with IgG1 Fc linked recombinant human ALCAM followed by an anti-human IgG1 Fc FITC conjugated Ab (filled black histogram). Staining of cells with anti-human IgG1 Fc FITC alone (open grey histogram), staining of non-transduced T cells (NT) (dotted open histogram) served as control for basal CD6 expression on normal T cells which bind natively to ALCAM.Fc. and percentage transduction is determined after staining of monomer, monomer+signaling domain, trimer, trimer+signaling domain, pentamer and pentamer+signaling domain (grey-filled histogram) (FIG. 6).

binding result: binds
B1: IgG1 Fc linked recombinant human ALCAM (Fc fusion, UniProt Q13740 28-527, looked up)
chain: WYTVNSAYGDTIIIPCRLDVPQNLMFGKWKYEKPDGSPVFIAFRSSTKKSVQYDDVPEYKDRLNLSENYTLSISNARISDEKRFVCMLVTEDNVFEAPTIVKVFKQPSKPEIVSKALFLETEQLKKLGDCISEDSYPDGNITWYRNGKVLHPLEGAVVIIFKKEMDPVTQLYTMTSTLEYKTTKADIQMPFTCSVTYYGPSGQKTIHSEQAVFDIYYPTEQVTIQVLPPKNAIKEGDNITLKCLGNGNPPPEEFLFYLPGQPEGIRSSNTYTLTDVRRNATGDYKCSLIDKKSMIASTAITVHYLDLSLNPSGEVTRQIGDALPVSCTISASRNATVVWMKDNIRLRSSPSFSSLHYQDAGNYVCETALQEVEGLKKRESLTLIVEGKPQIKMTKKTDPSGLSKTIICHVEGFPKPAIQWTITGSGSVINQTEESPYINGRYYSKIIISPEENVTLTCTAENQLERTVNSLNVSAISIPEHDEADEISDENREKVNDQAK
notes: also called ALCAM-fc; ALCAM-Fc; not shown: IgG1 Fc (detected with anti-human IgG1 Fc antibody)
